We go through 3 molecules from patent publication US20080032927A1 (published 2008).

Assay [1] has as its target LEF1/TCF-transcriptional factors. Briefly: cell-based or functional assay.
Assay [2] shares this target. Briefly: cell-based or functional assay. This is another data set of the same source.
Another assay addresses T1, TCF4 (UniProt Q9NQB0 1-619, limits assumed).
T1 construct: Endogenous protein of HCT116 cells; also called endogenous TCF4
Briefly: co-immunoprecipitation with anti-TCF4 beads. As to the method: Co-immunoprecipitation-The affinity-protein G beads were prepared by mixing 20 μl of protein G plus-Agarose beads (Santa Cruz Biotechnology) with 1 μg of corresponding antibody. A total of 2×10⁶ of cells were lysed with 1× cells lysis buffer (Promega) containing 1× protease inhibitor reagent (Roche), incubated on ice for 30 minutes, sonicated briefly, and centrifuged at 12,000 g for 5 minutes at 4° C. The supernatants were further cleaned with 20 μl of untreated protein G plus-Agarose beads and 2 μg of pre-immune serum for 2 hours at 4° C. The supernatants were then mixed with 20 μl of prelabeled protein G plus-Agarose beads at 4° C. overnight. The beads were washed four times with PBS plus 0.2% NP40.
Xom binds to LEF1/TCF factors in vivo and in vitro-Binding of LEF1/TCFs to the promoter of TOPflash is required for the activation of the reporter construct; thus, the finding that expression of Xom activates TOPflash but not FOPflash raised the possibility that Xom activates the TOPflash reporter through interaction with LEF1/TCFs. This hypothesis was tested by determining whether Xom physically interacts with LEF1/TCFs. Co-immunoprecipitation experiments was carried out in HCT116 cells transiently transfected with mye-Xom. […] The in vivo association between Xom and TCF4 appears to be strong and could not be dissociated with 300 mM NaCl and 0.1% NP40. […]

Like-named read-outs stand apart in the source and are kept apart here.

T1 sequence (Q9NQB0 whole entry): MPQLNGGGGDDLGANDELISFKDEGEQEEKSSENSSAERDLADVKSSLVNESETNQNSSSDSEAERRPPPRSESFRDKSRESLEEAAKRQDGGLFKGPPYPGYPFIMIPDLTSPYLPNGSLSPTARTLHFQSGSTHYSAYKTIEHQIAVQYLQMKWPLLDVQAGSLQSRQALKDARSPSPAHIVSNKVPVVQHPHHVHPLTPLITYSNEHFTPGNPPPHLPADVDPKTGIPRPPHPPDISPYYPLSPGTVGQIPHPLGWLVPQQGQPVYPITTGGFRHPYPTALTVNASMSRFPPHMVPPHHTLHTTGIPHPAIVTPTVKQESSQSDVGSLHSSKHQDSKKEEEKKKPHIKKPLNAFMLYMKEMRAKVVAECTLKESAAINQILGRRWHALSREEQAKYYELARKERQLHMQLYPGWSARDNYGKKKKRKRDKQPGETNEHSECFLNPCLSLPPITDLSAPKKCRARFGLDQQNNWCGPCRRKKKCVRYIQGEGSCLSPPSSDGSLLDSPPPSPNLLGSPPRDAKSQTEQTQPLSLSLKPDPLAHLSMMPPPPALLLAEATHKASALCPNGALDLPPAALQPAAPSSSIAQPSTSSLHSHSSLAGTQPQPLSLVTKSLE

Xom: in assay [1], the TOPflash reporter in 293T cells stood at 10 fold and the TOPflash reporter transcription in Xenopus embryos stood at 7 fold.

B1: XomCD85 (protein)
chain: MTKAFSSVEWLAQSSRRSHREQPSKVDQRYSPYPSPSLPSWNSDVSPSSWNSQLSPDPDSAQVSPCPASAQVSPYSSDSEISLYSHEEEASFYGMDLNTSSSPGDNGLLHSEMVSVPDNIPRASSDEDAAKSAYSTSTDSGYESETSCSSSTAPEGDAISLSPNDTSDEEGKMGRRLRTAFTSDQISTLEKTFQKHRYLGASERQKLAAKLQLSEVQIKTWFQNRRMKYKREIQDGRPDSY
B1 returned a TOPflash reporter in 293T cells in assay [2] of 10 fold.

B2: XomID110 (other)
chain: MTKAFSSVEWLAQSSRRSHREQPSKVDQRYSPYPSPSLPSWNSDVSPSSWNSQLSPDPDSAQVSPCPASAQVSPYSSDSEISLYSHEEEASFYGMDLNTSSSPGDNGLLHSEMVSVPDNIPRASSDEDAAYHPAQFFGVYGYAQQPTPVFQHAVQHPYPGYNPLMETLPGTMPYTMHPPAMDSMTPFNSQPFQMLYLPQQHLGQPLTYQEERPFVR
notes: Internal deletion mutant of Xom lacking aa 131-240, which includes the homeodomain; also called XomID110 (fusion of aa 1-130 and aa 241-326)
Turning to B2, the binding result with TCF4 was “no binding”.
